As usually defined, the Kd is the constant that tells how readily two partners part at equilibrium.

The target in the assay is recombinant VEGF165 protein (human) (UniProt P15692). Nature of the assay: SPR in vitro binding, drug and recombinant VEGF165, 37 C.
Chain of recombinant VEGF165 protein (human) (P15692 other isoform, or with tags, fused parts or gaps): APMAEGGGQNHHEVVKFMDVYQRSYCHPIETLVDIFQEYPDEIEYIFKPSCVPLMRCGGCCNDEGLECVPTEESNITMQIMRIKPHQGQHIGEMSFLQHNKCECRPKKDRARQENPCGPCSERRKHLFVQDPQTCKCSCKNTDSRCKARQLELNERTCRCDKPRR

aflibercept (Fc fusion): the dissociation constant Kd was 0.457 nM.

The record behind these values is patent US20230416351A1.
